Where two headings read alike, the source gives them in different places.
Columns and labels:
[1] = target: muscle-type nicotinic acetylcholine receptor from the electric organ of Torpedo californica (Torpedo californica (endogenous in electric organ)) (UniProt P02710); assay: radioligand binding
[2] = target: muscle-type nicotinic acetylcholine receptor from the electric organ of Torpedo californica (Torpedo californica (endogenous in electric organ)) (UniProt P02710); assay: radioligand binding; remark: listed apart in the source

Chain of UniProt P02710 (P02710 25-461 limits assumed, chain 1 of 4): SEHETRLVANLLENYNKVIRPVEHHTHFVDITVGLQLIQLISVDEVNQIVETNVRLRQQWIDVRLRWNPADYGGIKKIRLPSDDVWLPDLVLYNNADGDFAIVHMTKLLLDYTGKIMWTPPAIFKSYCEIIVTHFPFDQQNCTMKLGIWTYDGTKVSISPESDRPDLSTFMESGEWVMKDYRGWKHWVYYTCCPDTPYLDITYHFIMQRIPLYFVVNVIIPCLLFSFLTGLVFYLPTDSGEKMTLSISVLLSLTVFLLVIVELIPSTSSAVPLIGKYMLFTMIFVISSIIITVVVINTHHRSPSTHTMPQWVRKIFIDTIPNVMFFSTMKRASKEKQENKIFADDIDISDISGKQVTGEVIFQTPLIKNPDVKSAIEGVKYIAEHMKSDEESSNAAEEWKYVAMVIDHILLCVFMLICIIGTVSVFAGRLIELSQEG
Chain of UniProt P02710 (P02712 25-493 limits assumed, chain 2 of 4, further chain): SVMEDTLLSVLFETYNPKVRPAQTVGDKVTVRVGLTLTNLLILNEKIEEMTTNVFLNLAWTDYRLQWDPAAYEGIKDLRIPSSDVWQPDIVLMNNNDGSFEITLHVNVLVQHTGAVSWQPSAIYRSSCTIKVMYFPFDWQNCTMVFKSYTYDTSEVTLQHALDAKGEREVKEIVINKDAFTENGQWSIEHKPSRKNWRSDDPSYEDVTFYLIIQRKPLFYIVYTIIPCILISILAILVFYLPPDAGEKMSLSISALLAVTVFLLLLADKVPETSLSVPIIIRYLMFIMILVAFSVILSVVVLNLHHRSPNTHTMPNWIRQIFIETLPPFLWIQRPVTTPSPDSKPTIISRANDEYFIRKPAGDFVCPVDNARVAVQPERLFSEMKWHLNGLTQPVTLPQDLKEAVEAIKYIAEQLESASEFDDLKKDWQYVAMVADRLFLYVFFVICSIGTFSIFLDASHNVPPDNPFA
Chain of UniProt P02710 (P02714 18-506 limits assumed, chain 3 of 4, further chain): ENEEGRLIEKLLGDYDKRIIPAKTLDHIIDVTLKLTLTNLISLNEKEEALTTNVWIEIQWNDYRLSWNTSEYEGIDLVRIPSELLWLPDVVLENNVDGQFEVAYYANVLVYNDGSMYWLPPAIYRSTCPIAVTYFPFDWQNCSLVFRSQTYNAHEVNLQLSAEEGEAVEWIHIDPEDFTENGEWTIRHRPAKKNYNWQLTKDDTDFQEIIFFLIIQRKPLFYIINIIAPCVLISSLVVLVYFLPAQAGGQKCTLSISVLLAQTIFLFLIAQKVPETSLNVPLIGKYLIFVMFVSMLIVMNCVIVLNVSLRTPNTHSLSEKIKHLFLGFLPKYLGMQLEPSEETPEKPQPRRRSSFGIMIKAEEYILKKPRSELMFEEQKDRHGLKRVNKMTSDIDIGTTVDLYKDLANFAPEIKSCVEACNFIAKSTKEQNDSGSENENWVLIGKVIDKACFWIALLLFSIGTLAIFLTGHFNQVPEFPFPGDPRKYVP
Chain of UniProt P02710 (P02718 22-522 limits assumed, chain 4 of 4, further chain): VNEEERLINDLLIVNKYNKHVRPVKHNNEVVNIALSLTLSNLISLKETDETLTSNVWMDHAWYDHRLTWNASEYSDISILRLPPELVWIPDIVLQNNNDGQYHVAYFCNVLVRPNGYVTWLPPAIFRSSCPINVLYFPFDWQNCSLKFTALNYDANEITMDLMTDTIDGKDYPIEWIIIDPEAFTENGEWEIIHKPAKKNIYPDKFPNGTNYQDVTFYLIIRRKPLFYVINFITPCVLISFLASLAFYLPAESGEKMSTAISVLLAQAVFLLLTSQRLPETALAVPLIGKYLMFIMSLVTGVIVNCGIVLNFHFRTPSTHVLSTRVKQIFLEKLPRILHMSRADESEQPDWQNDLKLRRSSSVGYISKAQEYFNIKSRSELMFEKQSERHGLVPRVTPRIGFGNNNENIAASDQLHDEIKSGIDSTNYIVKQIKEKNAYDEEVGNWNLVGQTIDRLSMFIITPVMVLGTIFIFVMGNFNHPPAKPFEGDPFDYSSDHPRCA

Binder | IC50 [1] [µM] | IC50 [2] [µM]
synthetic SLURP-1 (natural protein) LKCYTCKEPMTSASCRTITRCKPEDTACMTTLVTVEAEYPFNQSPVVTRSCSSSCVATDPDSIGAAHLIFCCFRDLCNSEL | 4.05 | 3.92
recombinant SLURP-1 with one additional N-terminal Met residue (natural protein) MLKCYTCKEPMTSASCRTITRCKPEDTACMTTLVTVEAEYPFNQSPVVTRSCSSSCVATDPDSIGAAHLIFCCFRDLCNSEL | 10.7 | 9.55

From article PMC10707033
